Key:
[1] = target: T1, wild type EGFR on cells (A431 cells; HEK293T or NIH/3T3 cells transfected with wild type ErbB1) (UniProt P00533 25-1210, limits assumed); experiment: cell-based or functional assay
[2] = target: T2, wild type EGFR on cells in the presence of EGF (ligand-activated, extended conformation) (UniProt P00533 25-1210; P01133 971-1023); experiment: flow cytometry on A431 cells, d2-labeled sdAb with excess EGF
T2 construct: Receptor-ligand complex as the target: EGFR with EGF added to the cells; also called extended EGFR

[3] = target: T3, EGFR fused to SNAP-tag, expressed on transfected HEK293T cells (UniProt P00533 25-1210, terbium cryptate donor fluorochrome (SNAP-Tb) covalently on the SNAP-tag); experiment: HTRF on EGFR-ST cells; KD in the presence of D10 as competitor
T3 construct: whole, on cells; also called EGFR-ST; ErbB1-ST; not shown: SNAP-tag and FLAG tag (Cisbio plasmid)

[4] = target: T3, EGFR fused to SNAP-tag, expressed on …; experiment: HTRF on EGFR-ST cells; KD in the presence of G10 as competitor
[5] = target: T3, EGFR fused to SNAP-tag, expressed on …; experiment: KD in the presence of Ab-3 as competitor; method not stated for Table 3
[6] = target: T1, wild type EGFR on cells (A431 cells; …); experiment: flow cytometry on A431 cells, d2-labeled sdAb with large excess of cetuximab
[7] = target: T3, EGFR fused to SNAP-tag, expressed on …; experiment: HTRF on EGFR-ST cells; KD in the presence of irrelevant sdAb as competitor
[8] = target: T3, EGFR fused to SNAP-tag, expressed on …; experiment: KD in the presence of cetuximab as competitor; method not stated for Table 3
[9] = target: T3, EGFR fused to SNAP-tag, expressed on …; experiment: KD in the presence of panitumumab as competitor; method not stated for Table 3
[10] = target: T3, EGFR fused to SNAP-tag, expressed on …; experiment: HTRF on EGFR-ST transfected HEK293T cells, directly d2-labeled sdAb; apparent Kd
[11] = target: T3, EGFR fused to SNAP-tag, expressed on …; experiment: KD in the presence of irrelevant sdAb as competitor; method not stated for Table 3
[12] = target: T4, ErbB2 fused to SNAP-tag, expressed on transfected HEK293T cells (UniProt P04626 23-1255, donor fluorochrome covalently on the SNAP-tag); experiment: HTRF on transfected HEK293T cells, anti-His-d2 detection
T4 construct: whole, on cells; also called ErbB2-ST; not shown: SNAP-tag and FLAG tag

[13] = target: T5, ErbB3 fused to SNAP-tag, expressed on transfected HEK293T cells (UniProt P21860 20-1342, donor fluorochrome covalently on the SNAP-tag); experiment: as above
T5 construct: whole, on cells; also called ErbB3-ST; not shown: SNAP-tag and FLAG tag

[14] = target: T6, ErbB4 fused to HALO-Tag, expressed on transfected HEK293T cells (UniProt Q15303 26-1308, donor fluorochrome covalently on the HALO-Tag); experiment: as above
T6 construct: whole, on cells; also called ErbB4-HT; not shown: HALO-Tag and c-myc tag
T6 sequence (Q15303 26-1308): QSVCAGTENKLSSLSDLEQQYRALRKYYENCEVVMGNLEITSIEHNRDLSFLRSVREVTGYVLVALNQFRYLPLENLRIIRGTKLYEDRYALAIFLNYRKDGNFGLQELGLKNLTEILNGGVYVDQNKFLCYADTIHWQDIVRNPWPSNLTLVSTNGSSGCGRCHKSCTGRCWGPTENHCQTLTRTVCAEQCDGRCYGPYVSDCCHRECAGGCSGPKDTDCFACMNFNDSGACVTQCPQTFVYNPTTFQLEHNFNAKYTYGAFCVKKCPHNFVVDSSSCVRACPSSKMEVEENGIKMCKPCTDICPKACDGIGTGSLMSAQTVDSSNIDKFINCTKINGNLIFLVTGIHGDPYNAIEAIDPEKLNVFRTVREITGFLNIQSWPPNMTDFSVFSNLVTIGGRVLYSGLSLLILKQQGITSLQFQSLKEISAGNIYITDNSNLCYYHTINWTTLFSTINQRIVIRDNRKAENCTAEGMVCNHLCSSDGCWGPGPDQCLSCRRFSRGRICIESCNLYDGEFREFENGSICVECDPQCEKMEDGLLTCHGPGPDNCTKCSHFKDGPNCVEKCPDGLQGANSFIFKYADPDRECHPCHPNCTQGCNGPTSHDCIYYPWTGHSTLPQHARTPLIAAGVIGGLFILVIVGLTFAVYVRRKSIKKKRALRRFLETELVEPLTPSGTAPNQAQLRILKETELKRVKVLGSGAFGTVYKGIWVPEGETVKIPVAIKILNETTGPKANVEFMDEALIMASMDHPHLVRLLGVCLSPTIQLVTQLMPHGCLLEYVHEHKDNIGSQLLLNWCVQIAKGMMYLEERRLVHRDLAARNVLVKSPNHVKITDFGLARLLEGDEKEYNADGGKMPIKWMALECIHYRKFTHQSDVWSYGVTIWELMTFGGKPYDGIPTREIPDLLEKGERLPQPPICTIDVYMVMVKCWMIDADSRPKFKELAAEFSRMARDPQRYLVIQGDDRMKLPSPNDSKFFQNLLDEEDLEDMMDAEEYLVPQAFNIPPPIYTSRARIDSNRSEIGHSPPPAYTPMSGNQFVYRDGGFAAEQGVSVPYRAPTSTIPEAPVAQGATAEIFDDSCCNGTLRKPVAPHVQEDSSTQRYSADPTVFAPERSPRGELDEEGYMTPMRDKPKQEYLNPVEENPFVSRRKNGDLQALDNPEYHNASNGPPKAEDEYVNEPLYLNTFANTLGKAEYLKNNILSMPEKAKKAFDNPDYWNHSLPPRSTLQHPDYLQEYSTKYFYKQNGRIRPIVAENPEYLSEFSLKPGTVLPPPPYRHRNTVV

[15] = target: T3, EGFR fused to SNAP-tag, expressed on …; experiment: HTRF on EGFR-ST transfected HEK293T cells, sdAb detected with anti-His-d2; apparent Kd
[16] = target: T3, EGFR fused to SNAP-tag, expressed on …; experiment: HTRF on living cells; comparison value for monovalent D10
[17] = target: T3, EGFR fused to SNAP-tag, expressed on …; experiment: HTRF on EGFR-ST cells; KD in the presence of E10 as competitor
[18] = target: T3, EGFR fused to SNAP-tag, expressed on …; experiment: KD in the presence of m425 as competitor; method not stated for Table 3
[19] = target: T3, EGFR fused to SNAP-tag, expressed on …; experiment: KD in the presence of irrelevant sdAb as competitor; method not stated for Table 3 (values of this column equal Table 2, HTRF on EGFR-ST)
[20] = target: T2, wild type EGFR on cells in the presence …; experiment: flow cytometry on A431 cells, G10-d2 in the presence of EGF

B1: biparatopic single domain antibody D4E (D10 - 4x(G4S) linker - E10) (bispecific antibody)
chain: EVQLQESGGGLVQAGGSLRLSCAVSISRTIFSLYAMEWYRQPPGKQRDLVARIYRSGDTNYADSVKGRFTISRDNAKNTVYLQMNSLKPEDTGVYYCNSPAQDWPWGQGTQVTVSSAAAGGGGSGGGGSGGGGSGGGGSMAQVQLQESGGGLAQAGGSLRLSCAASGRTLSSYDMGWFRQAPGKEREFVTAINWGDLSTYYADSVKGRFTISRDNAKNTVYLQMNSLKPEDTAVYYCAARLRYTVSDPIFSRPDRYNYWGQGTQVTVSSAAAEQKLISEEDLNGAAHHHHHHGS
notes: also called bisdAb D4E
For B1, the “inhibition of EGF-induced EGFR phosphorylation (FIG. 11); concentration against that of cetuximab” value [1] was 100 fold.

B2: d2-labeled anti-EGFR single domain antibody E10 (VHH)
VHH: QVQLQESGGGLAQAGGSLRLSCAASGRTLSSYDMGWFRQAPGKEREFVTAINWGDLSTYYADSVKGRFTISRDNAKNTVYLQMNSLKPEDTAVYYCAARLRYTVSDPIFSRPDRYNYWGQGTQVTVSS
modifications: d2 fluorochrome (d2-NHS) on lysine residues, positions not given
notes: E10 chemically coupled to the acceptor fluorochrome d2 by NHS chemistry; also called E10-d2; E10-D2; not shown: His tag
With B2 the binding result [2] was “no binding”, the Kd [3] was 17 nM and the Kd [4] was 17 nM. For the same binder, the Kd [5] was 67 nM, the “fold increase of binding in the presence of cetuximab” value [6] was 2 fold and the Kd [7] was 20 nM. The Kd [8] was 11 nM, the Kd [9] was 70 nM and the Kd [10] was 106 nM. For the same binder, the Kd [11] was 20 nM.

B3: anti-EGFR single domain antibody E10 (VHH, not shown: small tags and cut ends)
VHH: QVQLQESGGGLAQAGGSLRLSCAASGRTLSSYDMGWFRQAPGKEREFVTAINWGDLSTYYADSVKGRFTISRDNAKNTVYLQMNSLKPEDTAVYYCAARLRYTVSDPIFSRPDRYNYWGQGTQVTVSS
notes: Llama VHH produced in E. coli, His-tagged; also called sdAb E10; unlabeled E10
B3: no binding [12]; no binding [13]; no binding [14]. It also gave a Kd [15] of 25 nM.

B4: anti-EGFR single domain antibody D10 (VHH, not shown: small tags and cut ends)
VHH: EVQLVESGGGLVQAGGSLRLSCAVSISRTIFSLYAMEWYRQPPGKQRDLVARIYRSGDTNYADSVKGRFTISRDNAKNTVYLQMNSLKPEDTGVYYCNSPAQDWPWGQGTQVTVSS
notes: Llama VHH produced in E. coli, His-tagged; also called sdAb D10; unlabeled D10
B4: no binding [12]; no binding [13]; no binding [14]. For the same binder, the Kd [16] was 6 nM and the Kd [15] was 7 nM.

B5: d2-labeled anti-EGFR single domain antibody D10 (VHH)
VHH: EVQLVESGGGLVQAGGSLRLSCAVSISRTIFSLYAMEWYRQPPGKQRDLVARIYRSGDTNYADSVKGRFTISRDNAKNTVYLQMNSLKPEDTGVYYCNSPAQDWPWGQGTQVTVSS
modifications: d2 fluorochrome (d2-NHS) on lysine residues, positions not given
notes: D10 chemically coupled to the acceptor fluorochrome d2 by NHS chemistry; also called D10-d2; d2-labeled clone D10; not shown: His tag
B5 was tested, and the binding result [2] was “no binding”, the Kd [17] was 11 nM and the Kd [4] was 7 nM. For the same binder, the Kd [5] was 3 nM, the Kd [18] was 14 nM and the Kd [7] was 7 nM. The Kd [8] was 10 nM, the Kd [9] was 13 nM and the Kd [10] was 27 nM. The Kd [19] was 7 nM.

B6: d2-labeled anti-EGFR single domain antibody G10 (VHH)
VHH: EVQLVESGGGLVQAGGSLRLSCAASGRTFSNYAMGWFRQAPGKEREFVAGIIWSGSRTYYADPVKGRFTISRDNAKNTVYLQMNSLNVEDTAVYYCAASMGDYDVSLASPRSWGKGTQVTVSS
modifications: d2 fluorochrome (d2-NHS) on lysine residues, positions not given
notes: G10 chemically coupled to the acceptor fluorochrome d2 by NHS chemistry; also called G10-d2; d2-labeled clone G10; not shown: His tag
B6 was tested, and the “fold increase of affinity against EGFR without EGF” value [20] was 8 fold, the Kd [3] was 6 nM and the Kd [17] was 17 nM. It also gave a Kd [18] of 32 nM, a Kd [7] of 12 nM and a Kd [8] of 21 nM. It also gave a Kd [9] of 27 nM, a Kd [10] of 87 nM and a Kd [11] of 12 nM.

B7: anti-EGFR single domain antibody G10 (VHH, not shown: small tags and cut ends)
VHH: EVQLVESGGGLVQAGGSLRLSCAASGRTFSNYAMGWFRQAPGKEREFVAGIIWSGSRTYYADPVKGRFTISRDNAKNTVYLQMNSLNVEDTAVYYCAASMGDYDVSLASPRSWGKGTQVTVSS
notes: Llama VHH produced in E. coli, His-tagged; also called sdAb G10; unlabeled G10
B7: no binding [12]; no binding [13]; no binding [14]. The Kd [15] was 15 nM.

From patent publication US20170190787A1 (INSERM INSTITUT NATIONAL DE LA SANT ET DE LA RECHERCHE M …, published 2017)
